Reference: US20250382344A1, “Soluble GLP1/GIP/NPY2 Receptor Triple Agonists” (Boehringer Ingelheim International GmH, priority 2024, published 2025)
Numbering of substitutions follows the chain as printed. Read-outs that look alike come from different tables or passages of the source. One block for each molecule: values may come before it. *1 amine or outer side, *2 acyl side, *3 side chain or, on linkers, in order; H or OH if unused. Where no end group is shown, it is not given here. Side-chain parts run from the residue outwards. [ ]: non-standard residue; d: D form. The star is where a group is joined. C18 diacid = O=C(O)CCCCCCCCCCCCCCCCC(=O)*; γGlu = O=C(O)[C@H](CCC(=O)[*:2])N[*:1]; εLys = N[C@@H](CCCCN[*:1])C(=O)[*:2]; Aib = CC(C)(N)C(=O)O

How the values were obtained:
[1] = biological target: T1, hGLP1R (Homo sapiens, UniProt P43220); test: hGLP1R CreLuc assay in 0.5% and 100% plasma (HEK-293 CRE-luciferase reporter cells); format: cell-based; conditions: 0.5% human plasma, HEK-293 reporter cells, read-out: hGLP1R 0.5% hP
T1 construct: expressed in transfected cells; host or cells: HEK-293 CRE-luciferase reporter cells

[2] = biological target: T2, hGIPR (Homo sapiens, UniProt P48546); test: hGIPR CreLuc assay in 0.5% and 100% plasma (CHO CRE-luciferase reporter cells); format: cell-based
T2 construct: expressed in transfected cells; host or cells: CHO CRE-luciferase reporter cells
T2 sequence (P48546 22-466): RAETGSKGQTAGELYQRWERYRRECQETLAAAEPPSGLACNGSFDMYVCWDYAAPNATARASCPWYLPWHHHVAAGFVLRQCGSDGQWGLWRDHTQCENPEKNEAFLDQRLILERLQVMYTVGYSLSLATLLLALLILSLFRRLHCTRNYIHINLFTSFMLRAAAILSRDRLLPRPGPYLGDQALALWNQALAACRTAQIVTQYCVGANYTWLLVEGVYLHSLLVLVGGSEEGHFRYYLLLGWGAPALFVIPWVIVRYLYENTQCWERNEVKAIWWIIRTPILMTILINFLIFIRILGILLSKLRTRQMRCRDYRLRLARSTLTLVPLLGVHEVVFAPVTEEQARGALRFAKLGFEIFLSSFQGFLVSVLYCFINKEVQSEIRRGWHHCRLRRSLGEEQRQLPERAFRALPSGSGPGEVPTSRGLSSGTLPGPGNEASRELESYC

[3] = Solubility in 0.1 M phosphate buffer at pH 7; format: physicochemical; conditions: 0.1 M phosphate buffer at pH 7, 10 mg/mL final peptide concentration, shaking 2 hours at room temperature, peptides as TFA-salts; measured sample pH 6.5-7.0
[4] = biological target: T3, human GIP receptor (human, UniProt P48546 22-466); test: cell-based or functional assay
T3 sequence (looked up): T2 sequence (P48546 22-466)

[5] = biological target: T4, human neuropeptide Y2 receptor (human, UniProt P49146 1-381); test: cell-based or functional assay
T4 sequence (looked up): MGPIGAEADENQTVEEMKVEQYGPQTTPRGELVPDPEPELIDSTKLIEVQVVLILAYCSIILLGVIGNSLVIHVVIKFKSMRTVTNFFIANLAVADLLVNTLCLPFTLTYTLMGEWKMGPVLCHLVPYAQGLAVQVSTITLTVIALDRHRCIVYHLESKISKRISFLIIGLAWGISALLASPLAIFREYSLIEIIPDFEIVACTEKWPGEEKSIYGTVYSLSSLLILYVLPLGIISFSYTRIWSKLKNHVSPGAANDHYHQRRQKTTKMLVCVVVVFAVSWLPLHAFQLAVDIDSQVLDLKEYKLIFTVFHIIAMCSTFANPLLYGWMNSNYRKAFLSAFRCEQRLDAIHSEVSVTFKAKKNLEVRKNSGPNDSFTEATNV

[6] = 0.5% human plasma, read-out: hGIPR 0.5% hP

T1 sequence (P43220 24-463): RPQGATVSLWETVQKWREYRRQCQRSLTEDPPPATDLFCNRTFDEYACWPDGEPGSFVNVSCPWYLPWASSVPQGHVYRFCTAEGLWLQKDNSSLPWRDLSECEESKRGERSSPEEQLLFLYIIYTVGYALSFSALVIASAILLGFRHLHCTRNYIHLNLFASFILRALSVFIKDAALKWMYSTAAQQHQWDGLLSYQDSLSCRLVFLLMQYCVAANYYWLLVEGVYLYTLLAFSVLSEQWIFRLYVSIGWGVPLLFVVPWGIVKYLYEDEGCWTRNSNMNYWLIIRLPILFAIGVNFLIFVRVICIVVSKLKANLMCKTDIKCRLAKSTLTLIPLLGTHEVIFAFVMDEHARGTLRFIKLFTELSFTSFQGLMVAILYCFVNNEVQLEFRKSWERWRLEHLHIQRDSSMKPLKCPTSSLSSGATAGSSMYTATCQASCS

EC50 [1]: 7.1 nM | EC50 [2, 6]: 0.4 nM | solubility at 2 h [3]: 5200 µg/mL
Molecule: CC[C@H](C)[C@H](NC(=O)[C@H](CO)NC(=O)[C@H](Cc1ccc(O)cc1)NC(=O)[C@H](CC(=O)O)NC(=O)[C@H](CO)NC(=O)[C@@H](NC(=O)[C@H](Cc1ccccc1)NC(=O)[C@@H](NC(=O)CNC(=O)[C@H](CCC(=O)O)NC(=O)C(C)(C)NC(=O)[C@@H](N)Cc1ccc(O)cc1)[C@@H](C)O)[C@@H](C)O)C(=O)N[C@@H](CCC(=O)O)C(=O)N[C@@H](CC(C)C)C(=O)N[C@@H](CCC(=O)O)C(=O)N[C@@H](CCCCN)C(=O)N[C@@H](CCC(N)=O)C(=O)N[C@@H](C)C(=O)N[C@@H](CCC(N)=O)C(=O)NC(C)(C)C(=O)N[C@@H](C)C(=O)N[C@@H](Cc1ccccc1)C(=O)N[C@H](C(=O)N[C@@H](CCCNC(=N)N)C(=O)N[C@@H](Cc1c[nH]cn1)C(=O)N[C@@H](CC(C)C)C(=O)N[C@H](C(=O)N[C@@H](CC(N)=O)C(=O)N[C@@H](CCCCNC(=O)[C@@H](N)CCCCNC(=O)CC[C@H](NC(=O)CC[C@H](NC(=O)CC[C@H](NC(=O)CC[C@H](NC(=O)CC[C@H](NC(=O)CC[C@H](NC(=O)CCCCCCCCCCCCCCCCC(=O)O)C(=O)O)C(=O)O)C(=O)O)C(=O)O)C(=O)O)C(=O)O)C(=O)NC(C)(C)C(=O)N[C@H](C(=O)N[C@@H](CCCNC(=N)N)C(=O)N[C@@H](CCC(N)=O)C(=O)N[C@@H](CCCNC(=N)N)C(=O)N[C@@H](Cc1ccc(O)cc1)C(N)=O)[C@@H](C)O)[C@@H](C)CC)C(C)C [Compound 160, Y-Aib-E-G-T-F-T-S-D-Y-S-I-E-L-E-K-Q-A-Q-Aib-A-F-V-R-H-L-I-N-K(1,3)-Aib-T-R-Q-R-Y-NH2.C18DA-gGlu-gGlu-gGlu-gGlu-gGlu-gGlu-eLys(1,2)]

EC50 [1]: 0.1 nM | EC50 [2, 6]: 0.2 nM | EC50 ([2]; 100% human plasma, read-out: hGIPR 100% hP): 5.9 nM | solubility at 2 h [3]: 5000 µg/mL
Molecule: CC[C@H](C)[C@H](NC(=O)[C@H](CC(C)C)NC(=O)[C@H](Cc1c[nH]cn1)NC(=O)[C@H](CCCNC(=N)N)NC(=O)[C@@H](NC(=O)[C@H](Cc1ccccc1)NC(=O)[C@H](CCC(=O)O)NC(=O)C(C)(C)NC(=O)[C@H](CCC(N)=O)NC(=O)[C@H](C)NC(=O)[C@H](CCC(N)=O)NC(=O)[C@H](CCCCN)NC(=O)[C@H](CCC(=O)O)NC(=O)[C@H](CC(C)C)NC(=O)C(C)(C)NC(=O)[C@@H](NC(=O)[C@H](CO)NC(=O)[C@H](Cc1ccc(O)cc1)NC(=O)[C@H](CC(=O)O)NC(=O)[C@H](CO)NC(=O)[C@@H](NC(=O)[C@H](Cc1ccccc1)NC(=O)[C@@H](NC(=O)CNC(=O)[C@H](CCC(=O)O)NC(=O)C(C)(C)NC(=O)[C@@H](N)Cc1ccc(O)cc1)[C@@H](C)O)[C@@H](C)O)[C@@H](C)CC)C(C)C)C(=O)N[C@@H](CC(N)=O)C(=O)N[C@@H](CCCCNC(=O)[C@@H](N)CCCCNC(=O)CC[C@H](NC(=O)CC[C@H](NC(=O)CC[C@H](NC(=O)CC[C@H](NC(=O)CCCCCCCCCCCCCCCCC(=O)O)C(=O)O)C(=O)O)C(=O)O)C(=O)O)C(=O)NC(C)(C)C(=O)N[C@H](C(=O)N[C@@H](CCCNC(=N)N)C(=O)N[C@@H](CCC(N)=O)C(=O)N[C@@H](CCCNC(=N)N)C(=O)N[C@@H](Cc1ccc(O)cc1)C(N)=O)[C@@H](C)O [Compound 163, Y-Aib-E-G-T-F-T-S-D-Y-S-I-Aib-L-E-K-Q-A-Q-Aib-E-F-V-R-H-L-I-N-K(1,3)-Aib-T-R-Q-R-Y-NH2.C18DA-gGlu-gGlu-gGlu-gGlu-eLys(1,2)]

EC50, CreLuc reporter, 100% hP [4]: 8 nM
Molecule: Y[Aib]EGTFTSDYSI[Aib]LEKQAQ[Aib]AFVRHLINK([εLys-εLys-γGlu-γGlu-γGlu-γGlu-γGlu-γGlu-C18 diacid])[Aib]TRQRY-NH2 [Compound 11]

EC50, CreLuc reporter, 100% hP [4]: 2 nM | EC50, CreLuc reporter, 0.5% hP [5]: 29.4 nM
B1: Compound 17 (peptide)
peptide: YXEGTFTSDYSIXLEKQAQXAFVRHLINKXTRQRY
modifications: Aib at 2, 13, 20, 30; NMeQ at 33; Lys29 epsilon-amino acylated with C18DA-gGlu-gGlu-gGlu-gGlu-gGlu-gGlu-eLys; C-terminal amide

EC50, CreLuc reporter, 0.5% hP [4]: 0.4 nM | EC50, CreLuc reporter, 100% hP [4]: 7 nM | EC50, CreLuc reporter, 0.5% hP [5]: 18.3 nM | EC50, CreLuc reporter, 100% hP [5]: 108 nM
B2: Compound 55 (peptide)
peptide: B1 peptide with E15D, K16A
modifications: Aib at 2, 13, 20, 30; Lys29 epsilon-amino acylated with C18DA-gGlu-gGlu-gGlu-gGlu-gGlu-gGlu-eLys; C-terminal amide

EC50, CreLuc reporter, 0.5% hP [4]: 0.7 nM | EC50, CreLuc reporter, 100% hP [4]: 23.3 nM | EC50, CreLuc reporter, 0.5% hP [5]: 335 nM | EC50, CreLuc reporter, 100% hP [5]: 522 nM
B3: Compound 50 (peptide)
peptide: B1 peptide with H25Q
modifications: Aib at 2, 13, 20, 30; Lys29 epsilon-amino acylated with C18DA-gGlu-gGlu-gGlu-gGlu-gGlu; C-terminal amide

EC50, CreLuc reporter, 0.5% hP [4]: 0.6 nM
B4: Compound 15 (peptide)
peptide: B1 peptide with Y10F
modifications: Aib at 2, 13, 20, 30; Lys29 epsilon-amino acylated with C20DA-gGlu-gGlu-gGlu-gGlu-gGlu-gGlu-eLys; C-terminal amide

EC50, CreLuc reporter, 0.5% hP [4]: 0.3 nM | EC50, CreLuc reporter, 100% hP [4]: 11.5 nM | EC50, CreLuc reporter, 0.5% hP [5]: 17.7 nM | EC50, CreLuc reporter, 100% hP [5]: 194 nM
B5: Compound 4 (peptide)
peptide: B1 peptide with Q17A
modifications: Aib at 2, 13, 20, 30; Lys29 epsilon-amino acylated with C20DA-gGlu-gGlu-gGlu-gGlu-gGlu-gGlu-eLys; C-terminal amide

EC50, CreLuc reporter, 0.5% hP [4]: 0.9 nM | EC50, CreLuc reporter, 100% hP [4]: 22.9 nM | EC50, CreLuc reporter, 0.5% hP [5]: 10.8 nM | EC50, CreLuc reporter, 100% hP [5]: 119 nM
B6: Compound 39 (peptide)
peptide: B1 peptide with A21E, X30L
modifications: Aib at 2, 13, 20; Lys29 epsilon-amino acylated with C20DA-gGlu-gGlu-gGlu-gGlu-gGlu-gGlu-eLys; C-terminal amide

EC50, CreLuc reporter, 0.5% hP [4]: 0.3 nM | EC50, CreLuc reporter, 0.5% hP [5]: 16.2 nM | EC50, CreLuc reporter, 100% hP [5]: 59.4 nM
B7: Compound 40 (peptide)
peptide: B1 peptide with E15D, K16E
modifications: Aib at 2, 13, 20, 30; Lys29 epsilon-amino acylated with C18DA-gGlu-gGlu-gGlu-gGlu-gGlu-gGlu-eLys; C-terminal amide

EC50, CreLuc reporter, 0.5% hP [4]: 0.3 nM
B8: Compound 71 (peptide)
peptide: B1 peptide with K16E
modifications: Aib at 2, 13, 20, 30; Lys29 epsilon-amino acylated with C18DA-gGlu-gGlu-gGlu-gGlu-gGlu-gGlu-eLys; C-terminal amide
